From publication PMC9016351 come the findings set out here.

The target in one assay is GB‐DRP1. As to the kind of experiment: ddFP assay in cells (confocal microscopy). Conditions: U2OS BAX/BAK DKO cells, 3 h after apoptosis induction; n = 3 independent experiments (n = 100 cells each); parent: est. 21; read off a plot.
Turning to RA‐BAX (from UniProt Q07812) G67R, the response came to 15%.
With RA‐BAX (from UniProt Q07812) K58E, the response was found to be 21%.
The same measure, in the same setting: under RA‐BAX (from UniProt Q07812) K57E stands 22%; under RA‐BAX (from UniProt Q07812) R134E, 19%.
The same measure, in the same setting: for “RA‐BAX (from UniProt Q07812) K21E; R134E” the value was 26%; for RA‐BAX (from UniProt Q07812) S184V, 7.5%; for RA‐BAX (from UniProt Q07812) L63E, 0%.
On the same count and under the same terms, under RA‐BAX (from UniProt Q07812) G40E stands 15%.
As for RA‐BAX (from UniProt Q07812) K21E, the response turned out to be 31%.
Same read-out and setting: for “RA‐BAX (from UniProt Q07812) G67R; S184V” the value was 3%.
Consider RA‐BAX (from UniProt Q07812) L59C, for which the response amounted to 38%.

The next assay concerns the target RA‐BAX (UniProt Q07812). Put plainly: ddFP assay in cells (confocal microscopy). Conditions: U2OS BAX/BAK DKO cells, 3 h after apoptosis induction; n = 3 independent experiments (n = 100 cells each); parent: est. 28; read off a plot.
UniProt Q07812, sequence (Q07812 whole entry): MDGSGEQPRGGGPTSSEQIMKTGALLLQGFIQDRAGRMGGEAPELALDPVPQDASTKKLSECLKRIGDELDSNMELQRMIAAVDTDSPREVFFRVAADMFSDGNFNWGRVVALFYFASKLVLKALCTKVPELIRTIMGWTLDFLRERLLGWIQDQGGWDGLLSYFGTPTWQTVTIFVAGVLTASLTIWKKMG
GB‐DRP1 K642E: the response amounted to 33%.
Same read-out and setting: for GB‐DRP1 K557R; K560R; K569R; K571R the value was 35%.
Still for that read-out and setting: under GB‐DRP1 R376E stands 34%; under GB‐DRP1 D221A, 27%.
Consider GB‐DRP1 K38A, for which the response worked out at 24%.
